Reference: patent US20230052369A1 (Zymeworks, published 2023)

Experiments:
[1] = target: T1, purified human monomeric 4-1BB (human, UniProt Q07011 24-186); assay: SPR, mean n=3;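 also: antibodies captured on anti-human Fc chip, 4-1BB injected as five-point two-fold series from 40 nM by single-cycle kinetics at 25 °C, sensorgrams fitted to 1:1 Langmuir model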
T1 construct: the assay used the 4-1BB part released by Factor Xa with the Fc removed; also called h4-1BB; human 4-1BB
Experimental: The anti-human Fc surface was prepared on a CMS Series S sensorchip by standard amine coupling methods as described by the manufacturer (GE Healthcare). Briefly, immediately after EDC/NHS activation, a 25 μg/mL solution of anti-human Fc in 10 mM NaOAc pH 4.5 was injected at a flow rate of 10 μL/min for 420 s until approximately 2000 resonance units (RUs) were immobilized on all four flow cells. The remaining active groups were quenched by a 420 s injection of 1M ethanolamine at 10 μL/min.
Antibodies for analysis were captured onto the anti-Fc surface by injecting 5 μg/mL solutions at a flow rate of 10 μL/min for 60 s. Using single-cycle kinetics, five concentrations of a two-fold dilution series of 4-1BB starting at 40 nM (for both supernatant and purified antibody runs) with a blank buffer control were sequentially injected at 40 μL/min for 180 s with a 600 s dissociation phase, resulting in a set of sensorgrams with a buffer blank reference. Experiments were performed at a constant temperature of 25° C. The anti-human Fc surfaces were regenerated to prepare for the next injection cycle by one pulse of 10 mM Glycine/HCl pH 1.5 for 120 s at 40 μL/min. Blank-subtracted sensorgrams were analyzed using Biacore™ T200 Evaluation Software v3.0. The blank-subtracted sensorgrams were then fit to the 1:1 Langmuir binding model.
Protein material post protein-A or SEC was assessed for binding to human 4-1BB.

[2] = target: T2, human 4-1BB, full-length, expressed on cells (human, UniProt Q07011 24-255); assay: flow cytometry, Jurkat-4-1BB
T2 construct: also called CD137; TNFRSF9
T2 sequence (Q07011 24-255): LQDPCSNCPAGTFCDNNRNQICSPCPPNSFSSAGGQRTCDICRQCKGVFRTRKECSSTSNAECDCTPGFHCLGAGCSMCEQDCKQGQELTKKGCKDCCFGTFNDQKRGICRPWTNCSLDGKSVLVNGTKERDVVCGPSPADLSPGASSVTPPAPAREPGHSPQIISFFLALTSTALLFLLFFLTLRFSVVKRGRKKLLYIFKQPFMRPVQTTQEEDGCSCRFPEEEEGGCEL
Experimental: Jurkat T cells engineered to stably express human 4-1BB were used to measure binding of antibodies to human 4-1BB. Antibodies were diluted in 5 μl FB (PBS 2% FCS) 1:3 from stock in wells of a 96 V-well plate, and cells added on top. The cells were then left on ice for 30 minutes for the antibodies to bind. The cells were then washed twice in FB, and then incubated in 50 μl FB containing 2 μg/ml goat anti-human Alexa647 antibody (Jackson Immunoresearch). The cells were then left on ice for a further 20 minutes, washed twice in FB, resuspended in 100 μl FB and analysed on a BD Fortessa™ X20. The subsequent data files were analysed using FlowJo™ and Prism 7 (GraphPad) using a four-parameter non-linear regression.

T1 sequence (Q07011 other isoform, or with tags, fused parts or gaps limits assumed): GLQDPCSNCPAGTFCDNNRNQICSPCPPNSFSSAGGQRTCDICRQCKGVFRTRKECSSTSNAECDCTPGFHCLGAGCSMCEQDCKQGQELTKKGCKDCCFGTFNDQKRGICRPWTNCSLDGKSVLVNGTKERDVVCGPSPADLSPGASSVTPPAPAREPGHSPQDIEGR

Kd [1]	EC50 [2]	Binder
69.2 nM	0.36 nM	v28688 (antibody, human IgG1, kappa, L234A L235A, V domains shown, also called humanized 1G1 H2L2) VH: EVQLVESGGGLVQPGGSLRLSCAASGFTFSEFGMHWVRQAPGKGLEWVAYISSGGSTIYYADSVKGRFTISRDNAKNSLYLQMNSLRAEDTAVYYCARDWVDYWGQGTLLTVSS VL: EIVLTQSPATLSLSPGERATLSCKASENVGSYVSWYQQKPGQAPRLLIYGASNRYTGVPARFSGSGSGTDFTLTISSLEPEDFAVYYCGQSYSYPLTFGGGTKVEIKR
31.1 nM		v28686 (antibody, human IgG1, kappa, L234A L235A, V domains shown, also called humanized 1G1 H1L4) VH: EVQLVESGGGLVQPGGSLRLSCAASGFTFSEFGMHWVRQAPGKGLEWVSYISSGGSTIYYADSVKGRFTISRDNAKNSLYLQMNSLRAEDTAVYYCARDWVDYWGQGTLVTVSS VL: EIVMTQSPATLSLSPGERVTLSCKASENVGSYVSWYQQKPGQAPRLLIYGASNRYTGVPARFSGSGSGTDFTLTISSVEPEDLAVYYCGQSYSYPLTFGGGTKLELKR
36.2 nM	0.353 nM	v28693 (antibody, human IgG1, kappa, L234A L235A, V domains shown, also called humanized 1G1 H3L3) VH: EVQLVESGGGLVQPGGSLRLSCAASGFTFSEFGMHWVRQAPGKGLEWVAYISSGGSTIYYADSVKGRFTISRDNAKNSLYLQMNSLRAEDTAMYYCARDWVDYWGQGTLLTVSS VL: EIVMTQSPATLSLSPGERVTLSCKASENVGSYVSWYQQKPGQAPRLLIYGASNRYTGVPARFSGSGSGTDFTLTISSVEPEDFAVYYCGQSYSYPLTFGGGTKLELKR
46.4 nM	0.771 nM	v28692 (antibody, human IgG1, kappa, L234A L235A, V domains shown, also called humanized 1G1 H3L2) VH: EVQLVESGGGLVQPGGSLRLSCAASGFTFSEFGMHWVRQAPGKGLEWVAYISSGGSTIYYADSVKGRFTISRDNAKNSLYLQMNSLRAEDTAMYYCARDWVDYWGQGTLLTVSS VL: EIVLTQSPATLSLSPGERATLSCKASENVGSYVSWYQQKPGQAPRLLIYGASNRYTGVPARFSGSGSGTDFTLTISSLEPEDFAVYYCGQSYSYPLTFGGGTKVEIKR
34.7 nM	0.455 nM	v28694 (antibody, human IgG1, kappa, L234A L235A, V domains shown, also called humanized 1G1 H3L4) VH: EVQLVESGGGLVQPGGSLRLSCAASGFTFSEFGMHWVRQAPGKGLEWVAYISSGGSTIYYADSVKGRFTISRDNAKNSLYLQMNSLRAEDTAMYYCARDWVDYWGQGTLLTVSS VL: EIVMTQSPATLSLSPGERVTLSCKASENVGSYVSWYQQKPGQAPRLLIYGASNRYTGVPARFSGSGSGTDFTLTISSVEPEDLAVYYCGQSYSYPLTFGGGTKLELKR
34.4 nM	0.376 nM	v28690 (antibody, human IgG1, kappa, L234A L235A, V domains shown, also called humanized 1G1 H2L4) VH: EVQLVESGGGLVQPGGSLRLSCAASGFTFSEFGMHWVRQAPGKGLEWVAYISSGGSTIYYADSVKGRFTISRDNAKNSLYLQMNSLRAEDTAVYYCARDWVDYWGQGTLLTVSS VL: EIVMTQSPATLSLSPGERVTLSCKASENVGSYVSWYQQKPGQAPRLLIYGASNRYTGVPARFSGSGSGTDFTLTISSVEPEDLAVYYCGQSYSYPLTFGGGTKLELKR
38.5 nM	0.247 nM	v28684 (antibody, human IgG1, kappa, L234A L235A, V domains shown, also called humanized 1G1 H1L2) VH: EVQLVESGGGLVQPGGSLRLSCAASGFTFSEFGMHWVRQAPGKGLEWVSYISSGGSTIYYADSVKGRFTISRDNAKNSLYLQMNSLRAEDTAVYYCARDWVDYWGQGTLVTVSS VL: EIVLTQSPATLSLSPGERATLSCKASENVGSYVSWYQQKPGQAPRLLIYGASNRYTGVPARFSGSGSGTDFTLTISSLEPEDFAVYYCGQSYSYPLTFGGGTKVEIKR
31.2 nM	0.0551 nM	v28685 (antibody, human IgG1, kappa, L234A L235A, V domains shown, also called humanized 1G1 H1L3) VH: EVQLVESGGGLVQPGGSLRLSCAASGFTFSEFGMHWVRQAPGKGLEWVSYISSGGSTIYYADSVKGRFTISRDNAKNSLYLQMNSLRAEDTAVYYCARDWVDYWGQGTLVTVSS VL: EIVMTQSPATLSLSPGERVTLSCKASENVGSYVSWYQQKPGQAPRLLIYGASNRYTGVPARFSGSGSGTDFTLTISSVEPEDFAVYYCGQSYSYPLTFGGGTKLELKR
40.3 nM	1 nM	v28687 (antibody, human IgG1, kappa, L234A L235A, V domains shown, also called humanized 1G1 H2L1) VH: EVQLVESGGGLVQPGGSLRLSCAASGFTFSEFGMHWVRQAPGKGLEWVAYISSGGSTIYYADSVKGRFTISRDNAKNSLYLQMNSLRAEDTAVYYCARDWVDYWGQGTLLTVSS VL: EIVLTQSPATLSLSPGERATLSCKASENVGSYVSWYQQKPGQAPRLLIYGASNRYTGIPARFSGSGSGTDFTLTISSLEPEDFAVYYCGQSYSYPLTFGGGTKVEIKR
42.3 nM	0.223 nM	v28683 (antibody, human IgG1, kappa, L234A L235A, V domains shown, also called humanized 1G1 H1L1) VH: EVQLVESGGGLVQPGGSLRLSCAASGFTFSEFGMHWVRQAPGKGLEWVSYISSGGSTIYYADSVKGRFTISRDNAKNSLYLQMNSLRAEDTAVYYCARDWVDYWGQGTLVTVSS VL: EIVLTQSPATLSLSPGERATLSCKASENVGSYVSWYQQKPGQAPRLLIYGASNRYTGIPARFSGSGSGTDFTLTISSLEPEDFAVYYCGQSYSYPLTFGGGTKVEIKR
58.3 nM	0.486 nM	v28689 (antibody, human IgG1, kappa, L234A L235A, V domains shown, also called humanized 1G1 H2L3) VH: EVQLVESGGGLVQPGGSLRLSCAASGFTFSEFGMHWVRQAPGKGLEWVAYISSGGSTIYYADSVKGRFTISRDNAKNSLYLQMNSLRAEDTAVYYCARDWVDYWGQGTLLTVSS VL: EIVMTQSPATLSLSPGERVTLSCKASENVGSYVSWYQQKPGQAPRLLIYGASNRYTGVPARFSGSGSGTDFTLTISSVEPEDFAVYYCGQSYSYPLTFGGGTKLELKR
54.2 nM	1.44 nM	v28691 (antibody, human IgG1, kappa, L234A L235A, V domains shown, also called humanized 1G1 H3L1) VH: EVQLVESGGGLVQPGGSLRLSCAASGFTFSEFGMHWVRQAPGKGLEWVAYISSGGSTIYYADSVKGRFTISRDNAKNSLYLQMNSLRAEDTAMYYCARDWVDYWGQGTLLTVSS VL: EIVLTQSPATLSLSPGERATLSCKASENVGSYVSWYQQKPGQAPRLLIYGASNRYTGIPARFSGSGSGTDFTLTISSLEPEDFAVYYCGQSYSYPLTFGGGTKVEIKR
763 nM		v28726 (antibody, human IgG1, kappa, L234A L235A, V domains shown, also called humanized 1C8 H7L3) VH: EVQLVESGGGLIQPGGSLRLSCAVSGFSLTTYAISWVRQAPGKGLEWLGIIWPGGGTNYADSVKGRFTISKDNSKNTLYLQMNSLRAEDTAVYYCARGAGTWYFDVWGQGTLVTVSS VL: DIQMTQSPSSLSASVGDRVTITCSASQGISNYLNWYQQKPGKTVKLLIYYTSSLHSGVPSRFSGSGSGTDYTLTISSLQPEDIATYYCQQYSKFPWTFGQGTKLEIKR
1420 nM	713 nM	v28728 (antibody, human IgG1, kappa, L234A L235A, V domains shown, also called humanized 1C8 H8L2) VH: EVQLVESGGGLIQPGGSLRISCAVSGFSLTTYAISWVRQAPGKGLEWLGIIWPGGGTNYADSLKGRLTISKDNSKNTVYLQMNSLRTEDTAVYYCARGAGTWYFDVWGQGTLVTVSS VL: DIQMTQSPSSLSASVGDRVTITCSASQGISNYLNWYQQKPGKAPKLLIYYTSSLHSGVPSRFSGSGSGTDYTLTISSLQPEDIATYYCQQYSKFPWTFGQGTKLEIKR
813 nM	24.2 nM	v28727 (antibody, human IgG1, kappa, L234A L235A, V domains shown, also called humanized 1C8 H8L1) VH: EVQLVESGGGLIQPGGSLRISCAVSGFSLTTYAISWVRQAPGKGLEWLGIIWPGGGTNYADSLKGRLTISKDNSKNTVYLQMNSLRTEDTAVYYCARGAGTWYFDVWGQGTLVTVSS VL: DIQMTQSPSSLSASVGDRVTITCSASQGISNYLNWYQQKPGKAPKLLIYYTSSLHSGVPSRFSGSGSGTDFTFTISSLQPEDIATYYCQQYSKFPWTFGQGTKVEIKR
762 nM	88.7 nM	v28730 (antibody, human IgG1, kappa, L234A L235A, V domains shown, also called humanized 1C8 H8L3) VH: EVQLVESGGGLIQPGGSLRISCAVSGFSLTTYAISWVRQAPGKGLEWLGIIWPGGGTNYADSLKGRLTISKDNSKNTVYLQMNSLRTEDTAVYYCARGAGTWYFDVWGQGTLVTVSS VL: DIQMTQSPSSLSASVGDRVTITCSASQGISNYLNWYQQKPGKTVKLLIYYTSSLHSGVPSRFSGSGSGTDYTLTISSLQPEDIATYYCQQYSKFPWTFGQGTKLEIKR
195 nM	3.32 nM	v28705 (antibody, human IgG1, kappa, L234A L235A, V domains shown, also called humanized 5G8 H3L3) VH: QVQLQESGPGLVKPSETLSITCTVSGFSLISYGVHWVRQPPGKGLEWLGVIWSGGSTDYNPSLKSRVTISKDTSKNQVSFKLSSLTAADTAIYYCARNPLTATVMDYWGQGTLVTVSS VL: DIQMTQSPSSLSASVGDRVTVTCRASQNVGTNVAWYQQKPGKAPKALIYSASYRDSGVPSRFSGSGSGTDFTLTISSVQPEDFATYYCQQYNSYPLTFGGGTKLEIKR
735 nM		v28697 (antibody, human IgG1, kappa, L234A L235A, V domains shown, also called humanized 5G8 H1L3) VH: QVQLQESGPGLVKPSETLSLTCTVSGFSLISYGVHWIRQPPGKGLEWIGVIWSGGSTDYNPSLKSRVTISVDTSKNQFSLKLSSVTAADTAVYYCARNPLTATVMDYWGQGTLVTVSS VL: DIQMTQSPSSLSASVGDRVTVTCRASQNVGTNVAWYQQKPGKAPKALIYSASYRDSGVPSRFSGSGSGTDFTLTISSVQPEDFATYYCQQYNSYPLTFGGGTKLEIKR
1110 nM	38.3 nM	v28698 (antibody, human IgG1, kappa, L234A L235A, V domains shown, also called humanized 5G8 H1L4) VH: QVQLQESGPGLVKPSETLSLTCTVSGFSLISYGVHWIRQPPGKGLEWIGVIWSGGSTDYNPSLKSRVTISVDTSKNQFSLKLSSVTAADTAVYYCARNPLTATVMDYWGQGTLVTVSS VL: DIQMTQSPSSLSASVGDRVTVTCRASQNVGTNVAWYQQKPGKAPKALIYSASYRDSGVPSRFSGSGSGTDFTLTISSVQPEDLATYYCQQYNSYPLTFGGGTKLEIKR
574 nM		v28696 (antibody, human IgG1, kappa, L234A L235A, V domains shown, also called humanized 5G8 H1L2) VH: QVQLQESGPGLVKPSETLSLTCTVSGFSLISYGVHWIRQPPGKGLEWIGVIWSGGSTDYNPSLKSRVTISVDTSKNQFSLKLSSVTAADTAVYYCARNPLTATVMDYWGQGTLVTVSS VL: DIQMTQSPSSLSASVGDRVTITCRASQNVGTNVAWYQQKPGKAPKALIYSASYRDSGVPSRFSGSGSGTDFTLTISSLQPEDFATYYCQQYNSYPLTFGGGTKVEIKR
222 nM	56.4 nM	v28700 (antibody, human IgG1, kappa, L234A L235A, V domains shown, also called humanized 5G8 H2L2) VH: QVQLQESGPGLVKPSETLSLTCTVSGFSLISYGVHWVRQPPGKGLEWLGVIWSGGSTDYNPSLKSRVTISKDTSKNQFSLKLSSVTAADTAVYYCARNPLTATVMDYWGQGTLVTVSS VL: DIQMTQSPSSLSASVGDRVTITCRASQNVGTNVAWYQQKPGKAPKALIYSASYRDSGVPSRFSGSGSGTDFTLTISSLQPEDFATYYCQQYNSYPLTFGGGTKVEIKR
